In the supplement of paper PMC9732359:
± gives the uncertainty stated by the source.

Assay: protein stability index of a GFP-peptide fusion (yeast GPS) (PSI 1-4); higher = more stable; sorted into four equal gates, so the index is relative within each strain
Method in brief: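 Tiled 17-residue yeast protein peptides were fused downstream of GFP in a plasmid that also expresses Cherry, and the pooled library was carried in yeast. Mid-log cultures in leucine-free medium were sorted into four equal gates by GFP/Cherry fluorescence ratio, and plasmids from each gate were PCR-amplified and Illumina-sequenced, with reads assigned to strains by barcodes. The protein stability index for each peptide was each gate's read frequency times its gate number, summed.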

| Sequence | protein stability index (doa10∆) | protein stability index (pdr5∆) | protein stability index (san1∆) | protein stability index (ubr1∆) |
| --- | --- | --- | --- | --- |
| YFNQLKPYYFSNNHKLS [RPN12] | 1.17 ± 0.057 | 1.32 ± 0.077 | 1.19 ± 0.13 | 1.24 ± 0.04 |
| TSSVILGSQSKSDEGGS [YOR098C/NUP1] | – | 2.23 ± 0.12 | – | 1.81 ± 0.15 |
| PQVKIREASKDNVDFIL [RPB3] | 2.55 ± 0.065 | 2.12 ± 0.033 | 2.88 ± 0.073 | 1.77 ± 0.037 |
| WQEYSSVFKGGMQNLIK [SRP14] | 3.1 ± 0.12 | 3.44 ± 0.13 | 2.92 ± 0.14 | 3.16 ± 0.17 |
| GKLLRNYTQNIDNLESY [SIR2] | 3.48 ± 0.21 | 3.17 ± 0.27 | 3.09 ± 0.13 | – |
| PQRCTFAFEAIDPRHLA [POP1] | 2.55 ± 0.095 | 3.01 ± 0.077 | 2.73 ± 0.087 | 3.1 ± 0.051 |
| INLTKVTQKDICILGIL [CSI1] | 2.78 ± 0.07 | 2.83 ± 0.07 | 3.03 ± 0.059 | 3.11 ± 0.15 |
| LASKAARKSAPSTGGVK [HHT1] | 2.89 ± 0.15 | 3.12 ± 0.12 | 2.99 ± 0.076 | 3.05 ± 0.1 |
| VTKLNVLVDEIKSQYYS [YIL149C/MLP2] | 2.36 ± 0.066 | 2.33 ± 0.052 | 2.35 ± 0.074 | 2.28 ± 0.037 |
| IYYTPAFFHLFASLRVL [YJL039C/NUP192] | 1.73 ± 0.08 | 1.71 ± 0.081 | 1.43 ± 0.13 | 1.75 ± 0.083 |
| VIEMKRCFENLQNKSFK [UBP6] | 3.33 ± 0.15 | 3.28 ± 0.2 | 3.1 ± 0.16 | 3.13 ± 0.1 |
| YGDRMKLAKNLQIGDVV [RPO31] | 2.94 ± 0.13 | 3.49 ± 0.21 | 3.34 ± 0.1 | 3.57 ± 0.21 |
| MQRQQQGISGSQQNIVP [SNF2] | 2.91 ± 0.059 | 3.14 ± 0.05 | 3.19 ± 0.046 | 3.01 ± 0.047 |
| GNPGLPQYQYQRRYVIK [ITC1] | 3.27 ± 0.2 | 3.04 ± 0.15 | 2.87 ± 0.079 | 3.34 ± 0.095 |
| RRLHKVLRPFLLRRLKK [SNF2] | 2.09 ± 0.078 | 2.53 ± 0.1 | 1.89 ± 0.12 | 2.53 ± 0.07 |
| ILYGPPGTGKTLLARAV [RPT6] | 3.4 ± 0.16 | 3.09 ± 0.23 | 3.35 ± 0.16 | 2.95 ± 0.21 |
| DKFKLNENDLKTYNCLH [SMC1] | 2.7 ± 0.14 | 2.5 ± 0.12 | – | 2.85 ± 0.094 |
| IEATDLGNIASSFYINH [BRR2] | 3 ± 0.085 | 3.04 ± 0.1 | 3.12 ± 0.078 | 3.3 ± 0.072 |
| WKAPSSIVLDSEHFDVN [DIS3] | 3.14 ± 0.062 | 3.47 ± 0.064 | 3.28 ± 0.056 | 3.33 ± 0.052 |
| DVKSSDSLKLNSKPVEL [YJL041W/NSP1] | 3.27 ± 0.098 | 3.09 ± 0.12 | 3.1 ± 0.14 | 3.23 ± 0.12 |

| Sequence | protein stability index (doa10∆) | protein stability index (pdr5∆) | protein stability index (san1∆) | protein stability index (ubr1∆) |
| --- | --- | --- | --- | --- |
| ATLNYIDKNHGFERLTV [SRB7] | – | 3.28 ± 0.15 | – | 3.49 ± 0.13 |
| TGLHFGRLSLRSLTAYA [QCR10] | 1.22 ± 0.044 | 1.5 ± 0.059 | 1.39 ± 0.095 | 1.65 ± 0.055 |
| MKNPDVEFCGYSIPHPS [RPC19] | 2.81 ± 0.082 | 3.11 ± 0.064 | 2.94 ± 0.049 | 3.04 ± 0.085 |
| LQNDLIHKIQNDNNLKK [RPN5] | 2.96 ± 0.081 | 3.24 ± 0.068 | 3.11 ± 0.054 | 3.12 ± 0.065 |
| TMLITGQRPDRATTYEK [SIN4] | 3.06 ± 0.11 | 3.09 ± 0.15 | 3.25 ± 0.07 | 3.22 ± 0.05 |
| TSPGYSPGSPAYSPKQD [RPO21] | 2.31 ± 0.087 | 2.1 ± 0.063 | 2.39 ± 0.11 | 1.77 ± 0.05 |
| NLLKNFISSNDAFNMLS [SNF6] | 1.61 ± 0.099 | 2 ± 0.061 | 1.97 ± 0.13 | 1.98 ± 0.043 |
| WWTNSHHDGKLWNLNAY [PRP8] | 2.9 ± 0.21 | 2.76 ± 0.14 | 2.98 ± 0.082 | 2.45 ± 0.14 |
| IKTKQMSLKKCQEEVST [SMC2] | 2.48 ± 0.098 | 3.02 ± 0.095 | 3.03 ± 0.088 | 3.27 ± 0.059 |
| KSNDSEGDFLKSIIGKL [POP1] | 1.28 ± 0.12 | 2.91 ± 0.088 | 1.93 ± 0.11 | 1.3 ± 0.15 |
| IVSPQSNKPCMGIVQDT [RPO21] | 1.74 ± 0.064 | 1.68 ± 0.047 | 1.76 ± 0.098 | 1.58 ± 0.046 |
| GLNRHYYSLNIDYHKTA [RPN11] | – | 2.27 ± 0.29 | 2.85 ± 0.12 | 2.61 ± 0.14 |
| NLPGNITVVLGVNGYIW [RRP4] | 2.01 ± 0.15 | 2.64 ± 0.093 | 1.67 ± 0.12 | 2.5 ± 0.066 |
| PLLAQLFKTLFKKLTKD [RPB2] | 2.65 ± 0.04 | 1.29 ± 0.039 | 1.18 ± 0.092 | 1.16 ± 0.03 |
| HGMFSSASVRALIENWA [FAS1] | 1.48 ± 0.11 | 1.84 ± 0.12 | 1.48 ± 0.17 | 1.76 ± 0.064 |
| ETAKKITFHPKIRARSI [SMC2] | 2.91 ± 0.058 | 2.95 ± 0.06 | 2.92 ± 0.045 | 2.85 ± 0.05 |
| GKGPGCGFWQPAWRVWL [PRP8] | 2.58 ± 0.19 | – | – | 2.1 ± 0.19 |
| SKSDSDSEERDPKLEKC [ITC1] | 3 ± 0.14 | 2.97 ± 0.13 | 2.62 ± 0.11 | 1.84 ± 0.058 |
| DIICEDSTLILEQLAQH [RPB2] | 2.24 ± 0.047 | 2.56 ± 0.057 | 2.57 ± 0.084 | 2.35 ± 0.051 |
